# Experimental data from IntAct's records for PubMed 22632832.
# B1: Speckle-type POZ protein (Homo sapiens), O43791 (parent)
# chain: MSRVPSPPPPAEMSSGPVAESWCYTQIKVVKFSYMWTINNFSFCREEMGEVIKSSTFSSGANDKLKWCLRVNPKGLDEESKDYLSLYLLLVSCPKSEVRAKFKFSILNAKGEETKAMESQRAYRFVQGKDWGFKKFIRRDFLLDEANGLLPDDKLTLFCEVSVVQDSVNISGQNTMNMVKVPECRLADELGGLWENSRFTDCCLCVAGQEFQAHKAILAARSPVFSAMFEHEMEESKKNRVEINDVEPEVFKEMMCFIYTGKAPNLDKMADDLLAAADKYALERLKVMCEDALCSNLSVENAAEILILADLHSADQLKTQAVDFINYHASDVLETSGWKSMVVSHPHLVAEAYRSLASAQCPFLGPPRKRLKQS
# Variants of: B1
# Settings: with cul3_human CUL3, Q13618
row,Variant,effect of a mutation on the interaction
1,M233E,disrupting interaction strength
